Molecular target: T1, S. venezuelae WhiD (SvWhiD), N-terminally His6-tagged, full length (S. venezuelae, [4Fe-4S] cluster bound as isolated (cluster loading ~90%); cluster-free (apo) form after exposure to O2; N-terminal methionine cleaved)
T1 construct: WhiD of Streptomyces venezuelae, Wbl family [4Fe-4S] protein; codon-optimized gene in pET28a (NdeI/HindIII); His-tagged protein 15,923 Da by LC-MS (predicted 15,924 Da without the N-terminal methionine); The holo ([4Fe-4S]) and apo (cluster-free) forms have the same polypeptide and are kept as one molecule; The assay and the 'only:' limit tell which form was tested; The preparation holds ~10% …
Test: native MS; nondenaturing ESI-MS titration; SvWhiD 3 μM with σ^HrdB4 0.75-21 μM, I151A FNR (3 μM) as internal standard, 250 mM ammonium acetate, pH 7.2; fractional saturation against free σ^HrdB4 fitted with a simple binding isotherm
Conditions: both partners purified

B1: Domain 4 of the S. venezuelae principal sigma factor σ^HrdB (σ^HrdB4), N-terminally His6-tagged (domain or fragment)
chain: PADAVSFTLLQEQLHSVLDTLSEREAGVVSMRFGLTDGQPKTLDEIGKVYGVTRERIRQIESKTMSKLRHPSRSQVLRDYLD
With B1 the Kd was 740 nM.

Reference: article PMC7363131, “Interaction of the Streptomyces Wbl protein WhiD with the principal sigma factor σ^HrdB depends on the WhiD [4Fe-4S] cluster” (The Journal of Biological Chemistry, 2020)
